Assay results: paper PMC9724678, “The Autophagy Receptor TAX1BP1 (T6BP) improves antigen presentation by MHC‐II molecules” (EMBO Reports, 2022)

Molecular target: T1, GFP-T6BP (TAX1BP1 / TRAF6-binding protein fused to GFP) (UniProt Q86VP1 1-789)
T1 construct: plasmid a gift from F. Buss; it is written both GFP-T6BP and T6BP-GFP; also called T6BP-GFP; source: HeLa-CIITA, transfected, in lysate
Experiment: co-IP; GFP-T6BP or GFP alone from transfected HeLa-CIITA lysate on GFP-Trap beads, Western blot for CANX
Settings: partners not purified

T1 sequence (Q86VP1 whole entry, the tested form may be a part): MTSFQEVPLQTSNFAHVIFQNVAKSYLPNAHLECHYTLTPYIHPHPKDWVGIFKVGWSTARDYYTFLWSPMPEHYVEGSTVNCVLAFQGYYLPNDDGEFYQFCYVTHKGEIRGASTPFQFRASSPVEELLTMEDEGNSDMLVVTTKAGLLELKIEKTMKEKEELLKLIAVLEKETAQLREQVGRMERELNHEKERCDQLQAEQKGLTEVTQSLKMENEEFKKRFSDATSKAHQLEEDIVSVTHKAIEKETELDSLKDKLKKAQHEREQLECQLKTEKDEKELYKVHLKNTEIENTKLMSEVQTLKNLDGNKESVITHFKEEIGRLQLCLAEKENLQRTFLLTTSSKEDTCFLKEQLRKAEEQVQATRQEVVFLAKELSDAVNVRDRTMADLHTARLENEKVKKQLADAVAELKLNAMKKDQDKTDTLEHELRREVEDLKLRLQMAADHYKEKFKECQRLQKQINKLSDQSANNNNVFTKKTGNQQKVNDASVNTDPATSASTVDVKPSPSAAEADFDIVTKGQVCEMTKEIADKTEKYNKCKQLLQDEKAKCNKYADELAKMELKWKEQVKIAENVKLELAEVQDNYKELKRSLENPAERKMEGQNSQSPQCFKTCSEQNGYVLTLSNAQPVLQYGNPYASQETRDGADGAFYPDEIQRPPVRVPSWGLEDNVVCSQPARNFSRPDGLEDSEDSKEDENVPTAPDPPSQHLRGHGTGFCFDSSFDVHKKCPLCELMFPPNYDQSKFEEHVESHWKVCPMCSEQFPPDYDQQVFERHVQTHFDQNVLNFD

- fold enrichment against the GFP control: 3 fold
B1: Calnexin (CANX), endogenous (natural protein, UniProt P27824 21-592, looked up)
chain: HDGHDDDVIDIEDDLDDVIEEVEDSKPDTTAPPSSPKVTYKAPVPTGEVYFADSFDRGTLSGWILSKAKKDDTDDEIAKYDGKWEVEEMKESKLPGDKGLVLMSRAKHHAISAKLNKPFLFDTKPLIVQYEVNFQNGIECGGAYVKLLSKTPELNLDQFHDKTPYTIMFGPDKCGEDYKLHFIFRHKNPKTGIYEEKHAKRPDADLKTYFTDKKTHLYTLILNPDNSFEILVDQSVVNSGNLLNDMTPPVNPSREIEDPEDRKPEDWDERPKIPDPEAVKPDDWDEDAPAKIPDEEATKPEGWLDDEPEYVPDPDAEKPEDWDEDMDGEWEAPQIANPRCESAPGCGVWQRPVIDNPNYKGKWKPPMIDNPSYQGIWKPRKIPNPDFFEDLEPFRMTPFSAIGLELWSMTSDIFFDNFIICADRRIVDDWANDGWGLKKAADGAAEPGVVGQMIEAAEERPWLWVVYILTVALPVFLVILFCCSGKKQTSGMEYKKTDAPQPDVKEEEEEKEEEKDKGDEEEEGEEKLEEKQKSDAEEDGGTVSQEEEDRKPKAEEDEILNRSPRNRKPRRE
notes: ER-resident chaperone calnexin, endogenous; source: endogenous, HeLa-CIITA, DG-75 (B) and KG-1 (dendritic-like) lysates; endogenous in fixed HeLa-CIITA cells
